One molecule from PMC4944944, “The Calponin Family Member CHDP-1 Interacts with Rac/CED-10 to Promote Cell Protrusions” (PLoS Genetics, 2016) can be followed below.

For this assay, the target named is T1, Flag-tagged full-length CHDP-1 (C. elegans, UniProt P91027 1-338).
T1 construct: CHDP-1 (C10G11.7), single type III calponin homology domain protein of C. elegans; fragment limits show 338 residues; Cloned into a modified pFLAG-CMV-2 vector; In the self-association co-IP the second copy carried Myc (modified pcDNA3.1/myc-HIS(-) vector) in place of Flag; also called FLAG-CHDP-1; C10G11.7; source: HEK293T, transfected, in lysate
T1 sequence (looked up): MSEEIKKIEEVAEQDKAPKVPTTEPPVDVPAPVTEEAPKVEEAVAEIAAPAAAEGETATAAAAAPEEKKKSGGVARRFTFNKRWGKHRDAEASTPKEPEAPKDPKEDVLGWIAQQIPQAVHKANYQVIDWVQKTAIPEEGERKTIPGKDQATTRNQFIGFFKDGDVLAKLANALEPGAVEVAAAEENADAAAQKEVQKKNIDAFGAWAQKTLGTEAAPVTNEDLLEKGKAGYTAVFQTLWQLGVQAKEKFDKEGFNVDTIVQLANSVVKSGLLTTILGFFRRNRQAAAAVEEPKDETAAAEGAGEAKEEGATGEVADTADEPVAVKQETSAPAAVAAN
As to the kind of experiment: co-IP; Flag-CHDP-1 and Myc-CED-10 expressed in HEK293T cells, affinity purified, mixed together, then co-immunoprecipitated with Flag or Myc antibodies. The following applies: both partners purified.

B1: Myc-tagged CED-10 (natural protein)
chain: not shown
notes: CED-10, Rac1 homolog (Rho family small GTPase) of C. elegans; cDNA from Dr. Yuji Kohara; Cloned into a modified pcDNA3.1/myc-HIS(-) vector; also called Rac1/CED-10; worm Rac1 homolog; source: HEK293T, transfected, in lysate
Consider B1, for which the binding result is “binds”.
